Results from article PMC11546984.

Tests used:
[1] = target: Crovalimab (human); test: SPR; Biacore T200, 37 °C, pH 7.4; antibodies captured by goat anti-human IgG (Fc) on a CM4 chip (50-80 RU); recombinant human C5 as analyte, three-fold dilutions from 27 nM; 20 mM ACES, 150 mM NaCl, 1.2 mM CaCl2, 0.05% Tween 20, 0.005% NaN3; 1:1 binding model
[2] = target: Crovalimab (human); test: SPR; Biacore T200, 37 °C, pH 5.8; antibodies captured by goat anti-human IgG (Fc) on a CM4 chip (50-80 RU); recombinant human C5 as analyte, three-fold dilutions from 135 nM; 20 mM ACES, 150 mM NaCl, 1.2 mM CaCl2, 0.05% Tween 20, 0.005% NaN3; 1:1 binding model

Chain of Crovalimab (human) (light, as listed by the source, chain 2 of 2, other chains not shown): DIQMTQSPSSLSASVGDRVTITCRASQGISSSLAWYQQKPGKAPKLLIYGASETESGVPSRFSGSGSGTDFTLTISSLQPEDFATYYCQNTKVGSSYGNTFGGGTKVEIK

- Kd [1]: 0.000166 µM
- koff [1]: 0.000123 s⁻¹
- kon [1]: 741000 M⁻¹ s⁻¹
- Kd [2]: 0.132 µM
- koff [2]: 0.0164 s⁻¹
- kon [2]: 125000 M⁻¹ s⁻¹
Substance: Recombinant human C5 (natural protein)
